# Reference: paper PMC5057102, “Fabrication of an antibody-aptamer sandwich assay for electrochemical evaluation of levels of β-amyloid oligomers”
# Columns and labels:
# [1] = target: Amyloid beta 1-42 oligomers (UniProt P05067 672-713); experiment: electrochemical antibody-aptamer sandwich (DPV); 20 nM, antibody capture; 0.1 M phosphate buffer (Na2HPO4/NaH2PO4) pH 7.4; incubations at 37 C (Abeta 60 min, aptamer-Au-Th 3 h); 1% BSA block; conditions: label: gold nanoparticle, thionine
# [2] = target: Amyloid beta 1-40 oligomers (UniProt P05067 672-711); experiment: electrochemical antibody-aptamer sandwich (DPV); 20 nM, antibody capture; response similar to 1-42 oligomers; 0.1 M phosphate buffer (Na2HPO4/NaH2PO4) pH 7.4; incubations at 37 C (Abeta 60 min, aptamer-Au-Th 3 h); 1% BSA block; conditions: label: gold nanoparticle, thionine
# Chain of Amyloid beta 1-40 oligomers (P05067 672-711): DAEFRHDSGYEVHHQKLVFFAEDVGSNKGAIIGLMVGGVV
# Chain of Amyloid beta 1-42 oligomers (P05067 672-713): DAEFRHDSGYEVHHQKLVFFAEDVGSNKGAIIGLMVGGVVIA
binder,measurement,setting,value
"GCCTGTGTTGGGGCGGGTGCG (ssDNA, 5'-HS (thiol)) [Abeta oligomer aptamer (thiolated, on AuNP with thionine)]",binding result,[1],binds
same,binding result,[2],binds
